The results in this text go back to patent publication US20210130870, “VISUAL AND MODULAR DETECTION OF NUCLEIC ACIDS WITH ENZYME-ASSISTED NANOTECHNOLOGY” (National University of Singapore, published 2021).

This series concerns the target Taq DNA polymerase (UniProt P19821 P19821:1-832). The experiment in a line: BLI; 50 mM NaCl, 1.5 mM MgCl2, 50 mM Tris-HCl pH 8.5; immobilized biotin-aptamer; sensorgram only. The following applies: tags: GoTaq (Promega); label: biotin on aptamer for BLI; 20 bp duplex with 20 nt inverter overhang, conserved region CAATGTACAGTATTG

Sequence of Taq DNA polymerase (P19821 whole entry, one chain of several): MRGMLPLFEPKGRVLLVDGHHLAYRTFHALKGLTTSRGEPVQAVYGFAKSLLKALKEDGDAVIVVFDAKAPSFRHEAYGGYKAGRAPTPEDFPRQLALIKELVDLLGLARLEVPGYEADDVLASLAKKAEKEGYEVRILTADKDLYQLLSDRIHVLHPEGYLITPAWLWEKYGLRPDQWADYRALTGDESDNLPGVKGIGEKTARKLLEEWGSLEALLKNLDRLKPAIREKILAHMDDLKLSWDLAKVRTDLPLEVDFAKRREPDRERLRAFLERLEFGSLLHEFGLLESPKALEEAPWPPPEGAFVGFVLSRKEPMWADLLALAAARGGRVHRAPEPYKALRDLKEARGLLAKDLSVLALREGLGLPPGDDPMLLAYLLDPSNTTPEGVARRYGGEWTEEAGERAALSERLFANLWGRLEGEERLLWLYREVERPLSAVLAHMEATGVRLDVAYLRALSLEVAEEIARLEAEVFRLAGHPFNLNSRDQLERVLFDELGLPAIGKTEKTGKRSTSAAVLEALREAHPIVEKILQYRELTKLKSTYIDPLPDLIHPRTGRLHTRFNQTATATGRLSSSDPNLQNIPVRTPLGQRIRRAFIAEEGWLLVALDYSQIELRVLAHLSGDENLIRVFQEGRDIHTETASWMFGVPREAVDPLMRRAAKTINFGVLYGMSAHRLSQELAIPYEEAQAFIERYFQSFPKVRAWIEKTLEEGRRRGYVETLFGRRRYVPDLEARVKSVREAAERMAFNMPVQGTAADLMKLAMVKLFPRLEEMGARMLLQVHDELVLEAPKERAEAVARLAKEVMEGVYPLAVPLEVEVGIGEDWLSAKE

B1: HPV16 L2 aptamer/inverter recognition nanostructure (structured_DNA)
DNA 1: AAGTATCTGTAATAAAGTCACAATGTACAGTATTG
DNA 2: TGACTTTATTACAGATACTTCTACAACCCCGGTACCATCT
For the molecule B1, the binding result was “binds”.
